{"source": "patent US20230265404", "about": "“ENGINEERED MAD7 DIRECTED ENDONUCLEASE” (BIO-TECHNE CORPORATION, published 2023)", "binders": {"B1": {"name": "MAD7 PPIB gRNA ; 6FAM PPIB target duplex (ssRNA ; dsDNA)", "RNA": "UAAUUUCUACUCUUGUAGAUCCGUCACCAAAAUCAGAUUCA", "DNA 1": "AGATTCTCATAGGATTTTTACCGTCACCAAAATCAGATTCAGAACCACTTCTCTAAA", "DNA 2": "TTTAGAGAAGTGGTTCTGAATCTGATTTTGGTGACGGTAAAAATCCTATGAGAATCT"}}, "target": "T1, MAD7 E962Q (dead MAD7) (Eubacterium rectale, E962Q)", "T1 chain": "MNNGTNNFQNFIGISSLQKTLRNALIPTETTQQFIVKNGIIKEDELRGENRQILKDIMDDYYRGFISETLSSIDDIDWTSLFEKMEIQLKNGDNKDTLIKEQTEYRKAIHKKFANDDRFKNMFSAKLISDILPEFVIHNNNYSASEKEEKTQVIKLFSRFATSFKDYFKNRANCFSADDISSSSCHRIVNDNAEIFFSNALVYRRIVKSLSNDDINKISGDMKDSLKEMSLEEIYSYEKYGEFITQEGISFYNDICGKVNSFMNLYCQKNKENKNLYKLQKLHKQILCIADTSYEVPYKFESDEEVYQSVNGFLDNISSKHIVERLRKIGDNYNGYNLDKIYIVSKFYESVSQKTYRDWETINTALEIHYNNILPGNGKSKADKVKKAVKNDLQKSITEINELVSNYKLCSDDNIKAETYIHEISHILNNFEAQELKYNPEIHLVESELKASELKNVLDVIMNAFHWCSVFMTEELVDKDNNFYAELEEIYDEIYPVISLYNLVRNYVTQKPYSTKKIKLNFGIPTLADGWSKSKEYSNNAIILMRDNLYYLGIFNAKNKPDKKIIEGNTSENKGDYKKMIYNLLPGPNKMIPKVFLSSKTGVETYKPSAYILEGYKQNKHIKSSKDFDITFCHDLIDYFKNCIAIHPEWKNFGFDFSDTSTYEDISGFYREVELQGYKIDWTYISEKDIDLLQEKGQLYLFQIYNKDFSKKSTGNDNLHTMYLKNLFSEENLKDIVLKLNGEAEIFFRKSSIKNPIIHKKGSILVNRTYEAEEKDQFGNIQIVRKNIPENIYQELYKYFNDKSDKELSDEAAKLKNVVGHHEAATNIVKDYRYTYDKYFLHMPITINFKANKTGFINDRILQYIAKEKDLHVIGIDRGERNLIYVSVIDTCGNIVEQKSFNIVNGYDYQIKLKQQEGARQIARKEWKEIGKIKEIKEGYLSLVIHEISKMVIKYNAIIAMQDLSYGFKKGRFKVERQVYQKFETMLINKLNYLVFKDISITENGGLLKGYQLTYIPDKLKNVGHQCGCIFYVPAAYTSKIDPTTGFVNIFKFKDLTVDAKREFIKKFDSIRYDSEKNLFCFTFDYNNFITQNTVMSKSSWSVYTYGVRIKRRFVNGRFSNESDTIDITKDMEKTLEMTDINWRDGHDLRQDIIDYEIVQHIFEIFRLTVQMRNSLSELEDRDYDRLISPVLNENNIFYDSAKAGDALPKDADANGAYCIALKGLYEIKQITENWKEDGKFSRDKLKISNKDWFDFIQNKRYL", "assay": "EMSA; bound without cutting; PAM TTTA (5', from target sequence); NEB3.1, salmon sperm DNA competitor, 37 C", "settings": "tags: C-terminal 6xHis", "protocol": "To evaluate catalytic activity the modified MAD7 enzyme, an electrophoretic mobility shift assay (EMSA) was performed. The following reagents were used: [0142] […] salmon sperm DNA (United States Biological D3950-02 DNA, Salmon [0143] (Deoxyribonucleic acid) CAS: 9007-49-2 [0144] 100 pmol MAD7 variant [0145] 5 pmol double stranded, 6FAM labeled target (created as described above) [0146] 50 pmol MAD7 PPIB gRNA [0147] 2 μL NEB3.1 10X (New England Biolabs) [0148] 20 μL total reaction\nThe MAD7 variant was incubated with MAD7 PPIB gRNA at 37° C. for 15 minutes. Other reagents were added and incubated 37° for 30 minutes. Reactions were analyzed by gel electrophoresis. Samples were run on a 5% Mini-PROTEAN TBE Mini-Gels (Bio-Rad). Gels were pre-run for 15 minutes at 100V in 0.5X TBE running buffer, samples were loaded and run at 200V for 15 minutes. Gels were imaged with ProteinSimple FluorChem M system using blue excitation and green emission filter to detect 6FAM label. Gel was then stained for 15 minutes in ethidium bromide solution and imaged again using blue excitation and orange emission filter to detect DNA, finally the gel was stained with Coomassie stain and imaged with white light. […]", "data": [{"binder": "B1", "values": [{"measurement": "binding result", "value": "binds"}]}]}
